# Assay results reported in US20250282881A1 (SHANGHAI EPIMAB BIOTHERAPEUTICS, published 2025).
# T1: recombinant human OX40/His fusion protein (Novoprotein, CB17) (human, UniProt P43489 29-216)
# T1 construct: Bought protein
# T1 sequence: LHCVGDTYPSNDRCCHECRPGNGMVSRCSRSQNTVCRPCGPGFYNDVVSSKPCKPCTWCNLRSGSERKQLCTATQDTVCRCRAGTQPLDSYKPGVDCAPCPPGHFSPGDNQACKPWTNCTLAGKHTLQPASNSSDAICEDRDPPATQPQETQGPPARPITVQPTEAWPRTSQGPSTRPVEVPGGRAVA
# Biological target: T1, recombinant human OX40/His fusion …
# Assay: BLI (Octet RED96), antibody on AHC sensor, OX40/His as analyte, test group 1
# Experimental: (§1) All 17 antibodies in Table 4 were expressed by transient transfection of HEK293 cell, purified by Protein A chromatography, and assayed for and ranked by dissociation rate constant (koff). Briefly, antibodies binding affinities and kinetics were characterized by Octet® RED96 biolayer interferometry (Pall FortéBio LLC). Antibodies were captured by Anti-hIgG Fc Capture (AHC) Biosensors (Pall) at a concentration of 100 nM for 120 seconds. After that, sensors were dipped into running buffer (1× pH 7.2 PBS, 0.05% Tween 20, 0.1% BSA) for 60 seconds to check the baseline, then dipped into recombinant human OX40/His fusion protein (Novoprotein, CB17) at assigned concentration for 200 seconds to measure binding, followed by dipped into running buffer for 600 seconds for dissociation. The assay was conducted in four test groups (as listed in Table 5) all containing the EM1007-044c chimeric antibody as the basis for normalization. The association and dissociation curves were fitted to a 1:1 Langmuir binding model using ForteBio Data Analysis software (Pall) to obtain the off-rate constants as shown in Table 5 below. The off-rate of each antibody was compared to that of the EM1007-mAb044c chimeric antibody in the same test group obtained in parallel to produce the corresponding off-rate ratio, serving as a normalized index. […]
Binder,Normalized Index (off-rate ratio to EM1007-mAb044c),koff
"HuEM1007-044-6 (antibody, human IgG1, kappa, L234A L235A, V domains shown, Humanized anti-OX40, human IgG1 LALA / kappa) VH: EVQLVQSGAEVKKPGSSVKVSCKASGHTFSSSWMNWVRQAPGQGLEWMGRIYPGDEITNYNGKFKDRVTITADKSTSTAYMELSSLRSEDTAVYYCARDLLMPYWGQGTLVTVSS VL: DIVMTQTPLSLPVTPGEPASISCRSSKSLLYSNGITYLYWYLQKPGQSPQLLIYQMSNLAPGVPDRFSSSGSGTDFTLKISRVEAEDVGVYYCAQNLELPFTFGQGTKLEIKR",331%,0.00111 s⁻¹
"HuEM1007-044-3 (antibody, human IgG1, kappa, L234A L235A, V domains shown, Humanized anti-OX40, human IgG1 LALA / kappa) VH: EVQLVQSGAEVKKPGSSVKVSCKASGHTFSSSWMNWVRQAPGQGLEWIGRIYPGDEITNYNGKFKDRVTLTADKSTSTAYMELSSLRSEDTAVYYCARDLLMPYWGQGTLVTVSS VL: DIVMTQTPLSLPVTPGEPASISCRSSKSLLYSNGITYLYWYLQKPGQSPQLLIYQMSNLAPGVPDRFSGSGSGTDFTLKISRVEAEDVGVYYCAQNLELPFTFGQGTKLEIKR",255%,0.000859 s⁻¹
"HuEM1007-044-5 (antibody, human IgG1, kappa, L234A L235A, V domains shown, Humanized anti-OX40, human IgG1 LALA / kappa) VH: EVQLVQSGAEVKKPGSSVKVSCKASGGTFSSSWMNWVRQAPGQGLEWMGRIYPGDEITNYNGKFKDRVTITADKSTSTAYMELSSLRSEDTAVYYCARDLLMPYWGQGTLVTVSS VL: DIVMTQTPLSLPVTPGEPASISCRSSKSLLYSNGITYLYWYLQKPGQSPQLLIYQMSNLAPGVPDRFSSSGSGTDFTLKISRVEAEDVGVYYCAQNLELPFTFGQGTKLEIKR",243%,0.000818 s⁻¹

# More lines, now with the values ahead:
Normalized Index (off-rate ratio to EM1007-mAb044c),koff,Binder
281%,0.000944 s⁻¹,"HuEM1007-044-2 (antibody, human IgG1, kappa, L234A L235A, V domains shown, Humanized anti-OX40, human IgG1 LALA / kappa) VH: EVQLVQSGAEVKKPGSSVKVSCKASGHTFSSSWMNWVRQAPGQGLEWMGRIYPGDEITNYNGKFKDRVTITADKSTSTAYMELSSLRSEDTAVYYCARDLLMPYWGQGTLVTVSS VL: DIVMTQTPLSLPVTPGEPASISCRSSKSLLYSNGITYLYWYLQKPGQSPQLLIYQMSNLAPGVPDRFSGSGSGTDFTLKISRVEAEDVGVYYCAQNLELPFTFGQGTKLEIKR"
306%,0.00103 s⁻¹,"HuEM1007-044-1 (antibody, human IgG1, kappa, L234A L235A, V domains shown, Humanized anti-OX40, human IgG1 LALA / kappa) VH: EVQLVQSGAEVKKPGSSVKVSCKASGGTFSSSWMNWVRQAPGQGLEWMGRIYPGDEITNYNGKFKDRVTITADKSTSTAYMELSSLRSEDTAVYYCARDLLMPYWGQGTLVTVSS VL: DIVMTQTPLSLPVTPGEPASISCRSSKSLLYSNGITYLYWYLQKPGQSPQLLIYQMSNLAPGVPDRFSGSGSGTDFTLKISRVEAEDVGVYYCAQNLELPFTFGQGTKLEIKR"

# Biological target: T1, recombinant human OX40/His fusion …
# Assay: BLI (Octet RED96), antibody on AHC sensor, OX40/His as analyte, test group 2
# Experimental: as §1
Binder,Normalized Index (off-rate ratio to EM1007-mAb044c),koff
"EM1007-mAb044c-9 (antibody, human IgG1, kappa, L234A L235A, V domains shown) VH: QVQLQQSGPELVKPGASVTISCKASGHAFSSSWMNWVKQRPGKGLEWIGRIYPGDEITNYNAKFKDKATLTADKSSSTAYMQLSSLTFEDSAVYFCARDLLMPYWGQGTLVTVSA VL: DIVMTQTAFSNPVTLGTSASISCRSSKSLLYSNGITYLYWYLQKPGQSPHLLIYQMSNLAPGVPDRFSSSGSGTDFTLRISRVEAEDVGIYYCAQNLELPFTFGSGTKLEIKR",97%,0.000309 s⁻¹
"EM1007-mAb044c-12 (antibody, human IgG1, kappa, L234A L235A, V domains shown) VH: QVQLQQSGPELVKPGASVTISCKASGHAFSSSWMNWVKQRPGKGLEWIGRIYPGDEITNYNGKFKDKATLTADKSSSTAYMQLSSLTFEDSAVYFCARDLLMPYWGQGTLVTVSA VL: DIVMTQTPLSLPVTPGEPASISCRSSKSLLYSNGITYLYWYLQKPGQSPQLLIYQMSNLAPGVPDRFSGSGSGTDFTLKISRVEAEDVGVYYCAQNLELPFTFGQGTKLEIKR",255%,0.00081 s⁻¹
"EM1007-mAb044c-10 (antibody, human IgG1, kappa, L234A L235A, V domains shown) VH: QVQLQQSGPELVKPGASVTISCKASGHAFSSSWMNWVKQRPGKGLEWIGRIYPGDEITNYNGKFKDKATLTADKSSSTAYMQLSSLTFEDSAVYFCARDLLMPYWGQGTLVTVSA VL: DIVMTQTAFSNPVTLGTSASISCRSSKSLLYSNAITYLYWYLQKPGQSPHLLIYQMSNLAPGVPDRFSSSGSGTDFTLRISRVEAEDVGIYYCAQNLELPFTFGSGTKLEIKR",94%,0.000299 s⁻¹
"HuEM1007-044-7 (antibody, human IgG1, kappa, L234A L235A, V domains shown, Humanized anti-OX40, human IgG1 LALA / kappa) VH: EVQLVQSGAEVKKPGSSVKVSCKASGHTFSSSWMNWVRQAPGQGLEWIGRIYPGDEITNYNGKFKDRVTLTADKSTSTAYMELSSLRSEDTAVYYCARDLLMPYWGQGTLVTVSS VL: DIVMTQTPLSLPVTPGEPASISCRSSKSLLYSNGITYLYWYLQKPGQSPQLLIYQMSNLAPGVPDRFSSSGSGTDFTLKISRVEAEDVGVYYCAQNLELPFTFGQGTKLEIKR",343%,0.00109 s⁻¹

# The remaining lines, values ahead:
Normalized Index (off-rate ratio to EM1007-mAb044c),koff,Binder
100%,0.000317 s⁻¹,"EM1007-mAb044c-11 (antibody, human IgG1, kappa, L234A L235A, V domains shown) VH: QVQLQQSGPELVKPGASVTISCKASGHAFSSSWMNWVKQRPGKGLEWIGRIYPGDEITNYNAKFKDKATLTADKSSSTAYMQLSSLTFEDSAVYFCARDLLMPYWGQGTLVTVSA VL: DIVMTQTAFSNPVTLGTSASISCRSSKSLLYSNAITYLYWYLQKPGQSPHLLIYQMSNLAPGVPDRFSSSGSGTDFTLRISRVEAEDVGIYYCAQNLELPFTFGSGTKLEIKR"
317%,0.00101 s⁻¹,"HuEM1007-044-8 (antibody, human IgG1, kappa, L234A L235A, V domains shown, Humanized anti-OX40, human IgG1 LALA / kappa) VH: EVQLVQSGAEVKKPGSSVKVSCKASGHTFSSSWMNWVKQAPGKGLEWIGRIYPGDEITNYNGKFKDKVTLTADKSTSTAYMELSSLRSEDTAVYYCARDLLMPYWGQGTLVTVSS VL: DIVMTQTPLSLPVTPGEPASISCRSSKSLLYSNGITYLYWYLQKPGQSPQLLIYQMSNLAPGVPDRFSSSGSGTDFTLKISRVEAEDVGVYYCAQNLELPFTFGQGTKLEIKR"

# Biological target: T1, recombinant human OX40/His fusion …
# Assay: BLI (Octet RED96), antibody on AHC sensor, OX40/His as analyte, test group 4
# Experimental: as §1
Normalized Index (off-rate ratio to EM1007-mAb044c),koff,Binder
92%,0.000256 s⁻¹,"EM1007-mAb044c-17 (antibody, human IgG1, kappa, L234A L235A, V domains shown) VH: EVQLQQSGAEVKKPGSSVKVSCKASGHAFSSSWMNWVKQRPGKGLEWIGRIYPGDEITNYNAKFKDKATLTADKSTSTAYMELSSLRSEDTAVYYCARDLLMPYWGQGTLVTVSS VL: DIVMTQTAFSNPVTLGTSASISCRSSKSLLYSNAITYLYWYLQKPGQSPHLLIYQMSNLAPGVPDRFSSSGSGTDFTLRISRVEAEDVGIYYCAQNLELPFTFGSGTKLEIKR"
340%,0.000949 s⁻¹,"EM1007-mAb044c-15 (antibody, human IgG1, kappa, L234A L235A, V domains shown) VH: EVQLVQSGAEVKKPGSSVKVSCKASGGTFSSSWMNWVRQRPGKGLEWMGRIYPGDEITNYNAKFKDRVTITADKSTSTAYMELSSLRSEDTAVYYCARDLLMPYWGQGTLVTVSS VL: DIVMTQTAFSNPVTLGTSASISCRSSKSLLYSNAITYLYWYLQKPGQSPHLLIYQMSNLAPGVPDRFSSSGSGTDFTLRISRVEAEDVGIYYCAQNLELPFTFGSGTKLEIKR"
341%,0.000952 s⁻¹,"HuEM1007-044-14 (antibody, human IgG1, kappa, L234A L235A, V domains shown, Humanized anti-OX40, human IgG1 LALA / kappa) VH: EVQLVQSGAEVKKPGSSVKVSCKASGGTFSSSWMNWVRQRPGKGLEWMGRIYPGDEITNYNAKFKDRVTITADKSTSTAYMELSSLRSEDTAVYYCARDLLMPYWGQGTLVTVSS VL: DIVMTQTPLSLPVTPGEPASISCRSSKSLLYSNAITYLYWYLQKPGQSPQLLIYQMSNLAPGVPDRFSSSGSGTDFTLKISRVEAEDVGVYYCAQNLELPFTFGQGTKLEIKR"
